Source: US7558625B2, “Combined micro-channel generation and iontophoresis for transdermal delivery of pharmaceutical agents” (TransPharma Medical Ltd., priority 2004, dated 2009)

Experiment: Transdermal delivery of hGH by ViaDerm and iontophoresis in anesthetized pigs, plasma hGH
Format: in vivo
Parameters: average AUC: unit: ng×hr/ml
Procedure: ViaDerm applications were performed on 8 adjacent sites on the marginal ear of each of the pigs using 80 μm electrodes and 2 bursts.
2 groups of pigs (males, 10-15 kg, large white) were tested: • Group 1: SC (250 μg)—3 pigs (no. 3, 9 and 25). • Group 2: ViaDerm and then iontophoresis was applied 5 times, each iontophoresis patch contained 22.5 mg (22.5×5; total of 112.5 mg)—3 pigs (no. 19, 20 and 21). Results

[1] = pigs, ViaDerm and Iontophoresis group, 5 consecutive patches

## hGH: human growth hormone (Genotropin, Pharmacia and Upjohn)
SC 0.25 mg hGH, pig3, 0 h
  hGH plasma levels: 0.14 ng/mL
SC 0.25 mg hGH, pig3, 1 h
  hGH plasma levels: 6.40 ng/mL
SC 0.25 mg hGH, pig3, 2 h
  hGH plasma levels: 10.57 ng/mL
SC 0.25 mg hGH, pig3, 3 h
  hGH plasma levels: 6.02 ng/mL
SC 0.25 mg hGH, pig3, 4 h
  hGH plasma levels: 5.39 ng/mL
SC 0.25 mg hGH, pig3, 5 h
  hGH plasma levels: 2.57 ng/mL
SC 0.25 mg hGH, pig3, 6 h
  hGH plasma levels: 3.35 ng/mL
SC 0.25 mg hGH, pig3, 7 h
  hGH plasma levels: 2.40 ng/mL
SC 0.25 mg hGH, pig3, 8 h
  hGH plasma levels: 2.00 ng/mL
SC 0.25 mg hGH, pig3, 9 h
  hGH plasma levels: 1.48 ng/mL
SC 0.25 mg hGH, pig3, 10 h
  hGH plasma levels: 1.18 ng/mL
SC 0.25 mg hGH, pig3, 11 h
  hGH plasma levels: 1.49 ng/mL
SC 0.25 mg hGH, pig3, 12 h
  hGH plasma levels: 1.75 ng/mL
SC 0.25 mg hGH, pig9, 0 h
  hGH plasma levels: 0.08 ng/mL
SC 0.25 mg hGH, pig9, 1 h
  hGH plasma levels: 22.96 ng/mL
SC 0.25 mg hGH, pig9, 2 h
  hGH plasma levels: 18.06 ng/mL
SC 0.25 mg hGH, pig9, 3 h
  hGH plasma levels: 15.88 ng/mL
SC 0.25 mg hGH, pig9, 4 h
  hGH plasma levels: 12.39 ng/mL
SC 0.25 mg hGH, pig9, 5 h
  hGH plasma levels: 9.85 ng/mL
SC 0.25 mg hGH, pig9, 6 h
  hGH plasma levels: 6.53 ng/mL
SC 0.25 mg hGH, pig9, 7 h
  hGH plasma levels: 6.31 ng/mL
SC 0.25 mg hGH, pig9, 8 h
  hGH plasma levels: 4.19 ng/mL
SC 0.25 mg hGH, pig9, 9 h
  hGH plasma levels: 2.58 ng/mL
SC 0.25 mg hGH, pig9, 10 h
  hGH plasma levels: 1.83 ng/mL
SC 0.25 mg hGH, pig9, 11 h
  hGH plasma levels: 1.25 ng/mL
SC 0.25 mg hGH, pig9, 12 h
  hGH plasma levels: 0.88 ng/mL
SC 0.25 mg hGH, pig25, 0 h
  hGH plasma levels: 0.10 ng/mL
SC 0.25 mg hGH, pig25, 1 h
  hGH plasma levels: 38.06 ng/mL
SC 0.25 mg hGH, pig25, 2 h
  hGH plasma levels: 31.00 ng/mL
SC 0.25 mg hGH, pig25, 3 h
  hGH plasma levels: 16.32 ng/mL
SC 0.25 mg hGH, pig25, 4 h
  hGH plasma levels: 13.40 ng/mL
SC 0.25 mg hGH, pig25, 5 h
  hGH plasma levels: 8.69 ng/mL
SC 0.25 mg hGH, pig25, 6 h
  hGH plasma levels: 6.66 ng/mL
SC 0.25 mg hGH, pig25, 7 h
  hGH plasma levels: 3.89 ng/mL
SC 0.25 mg hGH, pig25, 8 h
  hGH plasma levels: 2.76 ng/mL
SC 0.25 mg hGH, pig25, 9 h
  hGH plasma levels: 1.67 ng/mL
SC 0.25 mg hGH, pig25, 10 h
  hGH plasma levels: 1.19 ng/mL
SC 0.25 mg hGH, pig25, 11 h
  hGH plasma levels: 1.09 ng/mL
SC 0.25 mg hGH, pig25, 12 h
  hGH plasma levels: 0.78 ng/mL
SC 0.25 mg hGH, pigs, Average, 0 h
  hGH plasma levels: 0.1 ng/mL
SC 0.25 mg hGH, pigs, Average, 1 h
  hGH plasma levels: 22.5 ng/mL
SC 0.25 mg hGH, pigs, Average, 2 h
  hGH plasma levels: 19.9 ng/mL
SC 0.25 mg hGH, pigs, Average, 3 h
  hGH plasma levels: 12.7 ng/mL
SC 0.25 mg hGH, pigs, Average, 4 h
  hGH plasma levels: 10.4 ng/mL
SC 0.25 mg hGH, pigs, Average, 5 h
  hGH plasma levels: 7.0 ng/mL
SC 0.25 mg hGH, pigs, Average, 6 h
  hGH plasma levels: 5.5 ng/mL
SC 0.25 mg hGH, pigs, Average, 7 h
  hGH plasma levels: 4.2 ng/mL
SC 0.25 mg hGH, pigs, Average, 8 h
  hGH plasma levels: 3.0 ng/mL
SC 0.25 mg hGH, pigs, Average, 9 h
  hGH plasma levels: 1.9 ng/mL
SC 0.25 mg hGH, pigs, Average, 11 h
  hGH plasma levels: 1.3 ng/mL
SC 0.25 mg hGH, pigs, Average, 12 h
  hGH plasma levels: 1.1 ng/mL
SC 250 μg, 3 pigs
  average AUC: 90.3
SC 250 μg, pig no. 3
  AUC: 44 ng·h/mL
SC 250 μg, pig no. 9
  AUC: 102 ng·h/mL
SC 250 μg, pig no. 25
  AUC: 125 ng·h/mL
SC 250 μg, pigs
  Amount delivered: 250 µg
ViaDerm, Ionto 22.5 mg × 5, 3 pigs
  average AUC: 210.3
ViaDerm, Ionto 22.5 mg × 5, pig no. 19
  AUC: 138 ng·h/mL
ViaDerm, Ionto 22.5 mg × 5, pig no. 20
  AUC: 215 ng·h/mL
ViaDerm, Ionto 22.5 mg × 5, pig no. 21
  AUC: 278 ng·h/mL
ViaDerm, Ionto 22.5 mg × 5, pigs
  Amount delivered: 589 µg
ViaDerm, Iontoph. × 5 Total 112.5 mg hGH, pig19, 0 h
  hGH plasma levels: 0.04 ng/mL
ViaDerm, Iontoph. × 5 Total 112.5 mg hGH, pig19, 1 h
  hGH plasma levels: 8.39 ng/mL
ViaDerm, Iontoph. × 5 Total 112.5 mg hGH, pig19, 2 h
  hGH plasma levels: 18.46 ng/mL
ViaDerm, Iontoph. × 5 Total 112.5 mg hGH, pig19, 3 h
  hGH plasma levels: 24.50 ng/mL
ViaDerm, Iontoph. × 5 Total 112.5 mg hGH, pig19, 4 h
  hGH plasma levels: 25.34 ng/mL
ViaDerm, Iontoph. × 5 Total 112.5 mg hGH, pig19, 5 h
  hGH plasma levels: 25.27 ng/mL
ViaDerm, Iontoph. × 5 Total 112.5 mg hGH, pig19, 6 h
  hGH plasma levels: 13.34 ng/mL
ViaDerm, Iontoph. × 5 Total 112.5 mg hGH, pig19, 7 h
  hGH plasma levels: 9.63 ng/mL
ViaDerm, Iontoph. × 5 Total 112.5 mg hGH, pig19, 8 h
  hGH plasma levels: 4.03 ng/mL
ViaDerm, Iontoph. × 5 Total 112.5 mg hGH, pig19, 9 h
  hGH plasma levels: 4.08 ng/mL
ViaDerm, Iontoph. × 5 Total 112.5 mg hGH, pig19, 10 h
  hGH plasma levels: 3.32 ng/mL
ViaDerm, Iontoph. × 5 Total 112.5 mg hGH, pig19, 11 h
  hGH plasma levels: 1.42 ng/mL
ViaDerm, Iontoph. × 5 Total 112.5 mg hGH, pig19, 12 h
  hGH plasma levels: 1.38 ng/mL
ViaDerm, Iontoph. × 5 Total 112.5 mg hGH, pig20, 0 h
  hGH plasma levels: 0.06 ng/mL
ViaDerm, Iontoph. × 5 Total 112.5 mg hGH, pig20, 1 h
  hGH plasma levels: 7.01 ng/mL
ViaDerm, Iontoph. × 5 Total 112.5 mg hGH, pig20, 2 h
  hGH plasma levels: 22.45 ng/mL
ViaDerm, Iontoph. × 5 Total 112.5 mg hGH, pig20, 3 h
  hGH plasma levels: 26.93 ng/mL
ViaDerm, Iontoph. × 5 Total 112.5 mg hGH, pig20, 4 h
  hGH plasma levels: 31.04 ng/mL
ViaDerm, Iontoph. × 5 Total 112.5 mg hGH, pig20, 5 h
  hGH plasma levels: 28.21 ng/mL
ViaDerm, Iontoph. × 5 Total 112.5 mg hGH, pig20, 6 h
  hGH plasma levels: 22.09 ng/mL
ViaDerm, Iontoph. × 5 Total 112.5 mg hGH, pig20, 7 h
  hGH plasma levels: 44.00 ng/mL
ViaDerm, Iontoph. × 5 Total 112.5 mg hGH, pig20, 8 h
  hGH plasma levels: 10.69 ng/mL
ViaDerm, Iontoph. × 5 Total 112.5 mg hGH, pig20, 9 h
  hGH plasma levels: 8.98 ng/mL
ViaDerm, Iontoph. × 5 Total 112.5 mg hGH, pig20, 10 h
  hGH plasma levels: 6.49 ng/mL
ViaDerm, Iontoph. × 5 Total 112.5 mg hGH, pig20, 11 h
  hGH plasma levels: 4.91 ng/mL
ViaDerm, Iontoph. × 5 Total 112.5 mg hGH, pig20, 12 h
  hGH plasma levels: 5.01 ng/mL
ViaDerm, Iontoph. × 5 Total 112.5 mg hGH, pig21, 0 h
  hGH plasma levels: 0.08 ng/mL
ViaDerm, Iontoph. × 5 Total 112.5 mg hGH, pig21, 1 h
  hGH plasma levels: 2.68 ng/mL
ViaDerm, Iontoph. × 5 Total 112.5 mg hGH, pig21, 2 h
  hGH plasma levels: 10.38 ng/mL
ViaDerm, Iontoph. × 5 Total 112.5 mg hGH, pig21, 3 h
  hGH plasma levels: 24.52 ng/mL
ViaDerm, Iontoph. × 5 Total 112.5 mg hGH, pig21, 4 h
  hGH plasma levels: 28.87 ng/mL
ViaDerm, Iontoph. × 5 Total 112.5 mg hGH, pig21, 5 h
  hGH plasma levels: 44.93 ng/mL
ViaDerm, Iontoph. × 5 Total 112.5 mg hGH, pig21, 6 h
  hGH plasma levels: 34.25 ng/mL
ViaDerm, Iontoph. × 5 Total 112.5 mg hGH, pig21, 7 h
  hGH plasma levels: 33.54 ng/mL
ViaDerm, Iontoph. × 5 Total 112.5 mg hGH, pig21, 8 h
  hGH plasma levels: 28.93 ng/mL
ViaDerm, Iontoph. × 5 Total 112.5 mg hGH, pig21, 9 h
  hGH plasma levels: 24.89 ng/mL
ViaDerm, Iontoph. × 5 Total 112.5 mg hGH, pig21, 10 h
  hGH plasma levels: 22.46 ng/mL
ViaDerm, Iontoph. × 5 Total 112.5 mg hGH, pig21, 11 h
  hGH plasma levels: 17.86 ng/mL
ViaDerm, Iontoph. × 5 Total 112.5 mg hGH, pig21, 12 h
  hGH plasma levels: 9.00 ng/mL
ViaDerm, Iontoph. × 5 Total 112.5 mg hGH, pigs, Average, 0 h
  hGH plasma levels: 0.06 ng/mL
ViaDerm, Iontoph. × 5 Total 112.5 mg hGH, pigs, Average, 1 h
  hGH plasma levels: 6.03 ng/mL
ViaDerm, Iontoph. × 5 Total 112.5 mg hGH, pigs, Average, 2 h
  hGH plasma levels: 17.10 ng/mL
ViaDerm, Iontoph. × 5 Total 112.5 mg hGH, pigs, Average, 3 h
  hGH plasma levels: 25.32 ng/mL
ViaDerm, Iontoph. × 5 Total 112.5 mg hGH, pigs, Average, 4 h
  hGH plasma levels: 28.41 ng/mL
ViaDerm, Iontoph. × 5 Total 112.5 mg hGH, pigs, Average, 5 h
  hGH plasma levels: 32.80 ng/mL
ViaDerm, Iontoph. × 5 Total 112.5 mg hGH, pigs, Average, 6 h
  hGH plasma levels: 23.23 ng/mL
ViaDerm, Iontoph. × 5 Total 112.5 mg hGH, pigs, Average, 7 h
  hGH plasma levels: 29.06 ng/mL
ViaDerm, Iontoph. × 5 Total 112.5 mg hGH, pigs, Average, 8 h
  hGH plasma levels: 14.55 ng/mL
ViaDerm, Iontoph. × 5 Total 112.5 mg hGH, pigs, Average, 9 h
  hGH plasma levels: 12.65 ng/mL
ViaDerm, Iontoph. × 5 Total 112.5 mg hGH, pigs, Average, 10 h
  hGH plasma levels: 10.75 ng/mL
ViaDerm, Iontoph. × 5 Total 112.5 mg hGH, pigs, Average, 11 h
  hGH plasma levels: 8.06 ng/mL
ViaDerm, Iontoph. × 5 Total 112.5 mg hGH, pigs, Average, 12 h
  hGH plasma levels: 5.13 ng/mL
pigs, SC group
  average AUC value: 90.3 ng·h/mL
[1]
  AUC: 210.3 ng·h/mL
  Cmax: 32.8 ng/mL
  Tmax: 5 to 7 h
pigs, ViaDerm and Iontophoresis treated group
  skin irritation at the drug and the reference electrode: no irritation was observed
